# From US20040106557A1 (LICENTIA, published 2004)
# Bridge positions count the residues as written; N and C are the ends. Ends that are not written are not given here.
# B1: phage-displayed peptide A-1 (fUSE5 phage clone) (peptide)
# chain: CVFTSDYAFC
# notes: not shown: fUSE5 phage protein III and flanking residues
# B2: phage-displayed peptide C-3 (fUSE5 phage clone) (peptide)
# chain: CVAYCEEWECYVC
# notes: as for B1
# B3: phage-displayed peptide C-4 (fUSE5 phage clone) (peptide)
# chain: CVAYCIEHHCWTC
# notes: as for B1
# B4: phage-displayed peptide C-5 (fUSE5 phage clone) (peptide)
# chain: CVSYCDGLQCWMC
# notes: as for B1
# B5: phage-displayed peptide D-1 (fUSE5 phage clone) (peptide)
# chain: CLSTCAQSCRISC
# notes: as for B1
# B6: phage-displayed peptide D-2 (fUSE5 phage clone) (peptide)
# chain: CLLYCHDACWWVC
# notes: as for B1
# B7: phage-displayed peptide A-2 (fUSE5 phage clone) (peptide)
# chain: CVIYDGNHWC
# notes: as for B1
# B8: phage-displayed peptide A-3 (fUSE5 phage clone) (peptide)
# chain: CIFEPDYSYC
# notes: as for B1
# B9: phage-displayed peptide A-4 (fUSE5 phage clone) (peptide)
# chain: CVFDDLYSFC
# notes: as for B1
# B10: phage-displayed peptide B-1 (fUSE5 phage clone) (peptide)
# chain: CTFSVDYKYLMC
# notes: as for B1
# B11: phage-displayed peptide B-2 (fUSE5 phage clone) (peptide)
# chain: CVFAHNYDYLVC
# notes: as for B1
# B12: phage-displayed peptide B-3 (fUSE5 phage clone) (peptide)
# chain: CRFDKEYRTLVC
# notes: as for B1
# B13: phage-displayed peptide C-1 (fUSE5 phage clone) (peptide)
# chain: CVSYCLFEFCYVC
# notes: as for B1
# B14: phage-displayed peptide C-2 (fUSE5 phage clone) (peptide)
# chain: CVEYCWEGSCYVC
# notes: as for B1
# B15: chemically synthesized peptide A-1 (A-1-1, A-1 parent) (peptide)
# peptide: CVFTSDYAFC
# modifications: disulfide 1-10
# B16: A-1-2 (A-1 N6Y9) (peptide)
# peptide: CVFTSNYAYC
# modifications: disulfide 1-10 (inferred)
# B17: A-1-3 (A-1 N6N8Y9) (peptide)
# peptide: CVFTSNYNYC
# modifications: disulfide 1-10 (inferred)
# B18: A-1-4 (A-1 N6) (peptide)
# peptide: CVFTSNYAFC
# modifications: disulfide 1-10 (inferred)
# B19: A-1-5 (A-1 Y39) (peptide)
# peptide: CVYTSDYAYC
# modifications: disulfide 1-10 (inferred)
# B20: A-1-6 (A1 N6Y7Y9) (peptide)
# peptide: CVFTSNAAYC
# modifications: disulfide 1-10 (inferred)
# B21: chemically synthesized peptide B-2 (B-2-1, B-2 parent) (peptide)
# peptide: CVFAHNYDYLVC
# modifications: disulfide 1-12
# B22: B-2-2 (B-2 N8) (peptide)
# peptide: CVFAHNYNYLVC
# modifications: disulfide 1-12 (inferred)
# B23: B-2-3 (B-2 N8A9) (peptide)
# peptide: CVFAHNYNALVC
# modifications: disulfide 1-12 (inferred)
# B24: B-2-4 (B-2 10 N8) (peptide)
# peptide: CVFAHNYNYC
# modifications: disulfide 1-10 (inferred)
# B25: B-2-5 (B-2 A7) (peptide)
# peptide: CVFAHNANYLVC
# modifications: disulfide 1-12 (inferred)
# B26: chemically synthesized peptide C-4 without GA flanks (C-4-1, C4 parent) (peptide)
# peptide: CVAYCIEHHCWTC
# modifications: disulfide 1-13, 5-10
# B27: C-4-2 (C-4 F4) (peptide)
# peptide: CVAFCIEHHCWTC
# modifications: disulfide (positions not given here)
# B28: C-4-3 (C-4 Q7) (peptide)
# peptide: CVAYCIQHHCWTC
# modifications: disulfide (positions not given here)
# B29: C-4-4 (C-4 10A5Q7) (peptide)
# peptide: CVAYAIQHHC
# modifications: disulfide 1-10 (inferred)
# B30: C-4-5 (C-4 A4) (peptide)
# peptide: CVAACIEHHCWTC
# modifications: disulfide (positions not given here)
# B31: C-4-6 (C-4 A11) (peptide)
# peptide: CVAYCIEHHCATC
# modifications: disulfide (positions not given here); not fully specified
# B32: C-4-7 (cyclic with peptide bond) (peptide)
# peptide: cyclo(HHCWTVAYCIE)
# modifications: disulfide 3-9 (inferred)
# B33: phage-displayed peptide Z-1 (fUSE5 phage clone) (peptide)
# chain: CVTYCYGEVCYYC
# notes: isolated with 200 µM ZnCl2 in the panning buffer; not shown: fUSE5 phage protein III and flanking residues
# B34: phage-displayed peptide Z-2 (fUSE5 phage clone) (peptide)
# chain: CAAYCVAGLCYGC
# modifications: cysteine pairing not given here; also: displayed on fUSE5 phage protein III
# notes: isolated with 200 µM ZnCl2; not shown: fUSE5 phage protein III and flanking residues
# B35: phage-displayed peptide Z-3 (fUSE5 phage clone) (peptide)
# chain: CVQYCIGGDCWFC
# modifications: cysteine pairing not given here; also: displayed on fUSE5 phage protein III
# notes: as for B34
# B36: phage-displayed peptide Z-4 (fUSE5 phage clone) (peptide)
# chain: CVVYCDSMKCWTC
# modifications: cysteine pairing not given here; also: displayed on fUSE5 phage protein III
# notes: as for B34
# B37: phage-displayed peptide Z-5 (fUSE5 phage clone) (peptide)
# chain: CVAYCISSLCYYC
# modifications: cysteine pairing not given here; also: displayed on fUSE5 phage protein III
# notes: as for B34
# B38: phage-displayed peptide Z-6 (fUSE5 phage clone) (peptide)
# chain: CVWYTGNTWC
# modifications: not fully specified; cysteine pairing not given here; also: displayed on fUSE5 phage protein III with flanking residues
# notes: as for B34
# B39: phage-displayed peptide Z-7 (fUSE5 phage clone) (peptide)
# chain: CVFDALYTFC
# modifications: cysteine pairing not given here; also: displayed on fUSE5 phage protein III with flanking residues
# notes: as for B34
# B40: phage-displayed peptide Z-8 (fUSE5 phage clone) (peptide)
# chain: CVIYPGNVWC
# modifications: cysteine pairing not given here; also: displayed on fUSE5 phage protein III with flanking residues
# notes: as for B34
# Biological target: T1, Prostate specific antigen (PSA), purified from human seminal fluid (human, UniProt P07288 25-261)
# T1 construct: mature; Mostly captured on wells by MAb 5E4 (IFMA) or on the chip by MAb H117 (SPR); in solution in enzyme assays; also called free PSA; active PSA
# Assay: phage display, three rounds of selection on PSA captured by MAb 5E4
# Experimental: (§1) The screening of phage display peptide libraries was performed essentially as described by Koivunen et al. (21). Briefly, each phage library was separately screened with PSA captured on microtiter wells coated with the monoclonal antibody 5E4, which binds both free and complexed PSA (24). 33 nM PSA in TBS buffer containing 10 g/L BSA (BSA-TBS) was incubated in wells coated with MAb 5E4 for 1 h, then the wells were washed to remove unbound PSA. An aliquot of each phage library ([…] infectious particles) was added to the wells, and incubated for 3 h at 22° C. during the first round of panning and for 1 h during subsequent rounds. The phage solution was removed and the wells were washed with TBS containing 0.5% Tween 20. The panning was also performed in the prescence of 200 μM ZnCl2. The bound phage were eluted with 0.1 M glycine buffer, pH 2.2 and neutralized with 1 M Tris base. The eluted phage were amplified by infection of E. coli K91 kan cells, and purified by precipitation with polyethylene glycol. After three rounds of selection and amplification single stranded DNA from individual phage clones was prepared and the peptide sequences were determined by sequencing the relevant part of the viral DNA. Sequencing was performed with an ABI 310 Genetic analyzer and Dye Terminator Cycle Sequencing Core Kit (PE Applied Biosystems, Foster City, Calif., USA) using the oligonucleotide 5′ […] 3′ as a primer.
row,Binder,binding result
1,B1,binds
2,B2,binds
3,B3,binds
4,B4,binds
5,B5,binds
6,B6,binds
7,B7,binds
8,B8,binds
9,B9,binds
10,B10,binds
11,B11,binds
12,B12,binds
13,B13,binds
14,B14,binds

# Biological target: T1, Prostate specific antigen (PSA), …
# Assay: cell-based or functional assay
row,Binder,PSA-peptide/PSA ratio
1,B15,2.3 ratio
2,B16,2.3 ratio
3,B17,1.9 ratio
4,B18,2.4 ratio
5,B19,1 ratio
6,B20,1 ratio
7,B21,3 ratio
8,B22,3.1 ratio
9,B23,2.6 ratio
10,B24,1.9 ratio
11,B25,1.1 ratio
12,B26,2.1 ratio
13,B27,2.3 ratio
14,B28,2.1 ratio
15,B29,1.1 ratio
16,B30,1 ratio
17,B31,0.9 ratio
18,B32,0.8 ratio

# Biological target: T1, Prostate specific antigen (PSA), …
# Assay: phage display selection on PSA captured by MAb 5E4, 200 µM ZnCl2 in the panning buffer
# Experimental: as §1
row,Binder,binding result
1,B33,binds
2,B34,binds
3,B35,binds
4,B36,binds
5,B37,binds
6,B38,binds
7,B39,binds
8,B40,binds
